What was measured:
α-2-macroglobulin = experiment: FITC-trypsin on α-2-macroglobulin-loaded hydrogel microspots; CCD camera
Ferritin = experiment: FITC-trypsin on ferritin-loaded hydrogel microspots (negative control); CCD camera
[1] = system: T1, insulin receptor fragment (Peptide No. 1, phosphorylated)
T1 sequence: TRNIXQTNYYRK

| Substance | Flourescence Intensity (au) (α-2-macroglobulin) | Flourescence Intensity (au) (Ferritin) | loss of fluorescent signal (removal of the phosphate group, detected with anti-phosphotyrosine antibody) [1] |
| --- | --- | --- | --- |
| FITC-labeled trypsin (enzyme) | 800 au | 20 au | – |
| Leucocyte Antigene Related (LAR) protein tyrosin phosphatase | – | – | the LAR-PTPase selectively removes the phosphate group substantially completely from Peptide No. 1 |
